The target of assay [1] is tissue factor (TF) on the surface of TF-positive tumor cells (human, UniProt P13726 33-295). The assay can be described thus: cell-based or functional assay.
Assay [2] addresses T1, cynomolgus monkey TF-His (cynomolgus monkey, UniProt A0A2K5VX02 33-253).
T1 construct: range 33-252; Recombinant extracellular segment expressed in HEK293-EBNA cells and purified on a nickel column; also called c.TF-His; c; TF-his; not shown: His tag from vector pTT5-His
T1 sequence: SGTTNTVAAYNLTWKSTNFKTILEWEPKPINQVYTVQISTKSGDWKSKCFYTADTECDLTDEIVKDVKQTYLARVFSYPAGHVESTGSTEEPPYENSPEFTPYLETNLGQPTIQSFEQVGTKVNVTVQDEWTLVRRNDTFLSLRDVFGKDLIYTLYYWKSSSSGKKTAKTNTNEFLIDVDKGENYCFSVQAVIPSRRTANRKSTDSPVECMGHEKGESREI
The assay can be described thus: ELISA, plate coated with c.TF-His. As to the method:
The ELISA plate was coated overnight with TF antigen (h.TF-His or c.TF-His antigen) in 50 mM carbonate coating buffer (CBS coating solution) at a coating concentration of 1 μg/mL in a volume of 100 μL at 4° C. The next day, the coating solution was removed, each well was washed once with 300 μL of PBS, and 100 μL of 2% BSA (Biotopped, A6020) in PBS was added to each well for blocking at 37° C. for 2 h. The test sample was subjected to a gradient dilution with 2% BSA in PBS to establish 11 concentration points. 100 μL of each of the samples obtained by the gradient dilution was added to the plate, and the plate was incubated at 37° C. for 2 h. The supernatant was removed, and each well was washed three times with 300 μL of PBST. 100 μL of HRP-conjugated secondary antibody in 2% BSA was added to each well, and the plate was incubated at 37° C. for 1 h. […] At the end of the incubation, the secondary antibody was removed, each well was washed five times with 300 μL of PBST, and 100 μL of TMB substrate (Huzhou InnoReagents Co., Ltd., TMB-S-004) was added to each well for color development for 5-20 min. 50 μL of 2 N HCl was added to each well to stop the reaction, and OD450 nm values were read using a microplate reader (manufacturer: MD, model: SpectraMax) and imported into GraphPad software for fitting and plotting to determine the binding of the samples to TF antigenic proteins.
The assay was performed as described in the general methods. Briefly, an ELISA plate coated with a human TF-his protein or a cynomolgus monkey TF-his protein was blocked with 2% BSA at 37° C. for 2 h, and each of the antibodies obtained by the gradient dilution (starting at 10 μg/mL, 3-fold graded dilution, 11 concentration points) was added. The plate was incubated at 37° C. for 2 h.

Assay [3] addresses T2, human TF-His (human, UniProt P13726 33-251).
T2 construct: range 33-251; Recombinant extracellular segment expressed in HEK293-EBNA cells and purified on a nickel column; also called h.TF-His; h; TF-his; not shown: His tag from vector pTT5-His
Kind of assay: BLI (ForteBio Octet), antibody on ProA sensor, TF-His as analyte. As to the method:
(§1) The dynamic affinity of the humanized antibodies was determined by ForteBio. The experimental procedures were as follows: a ProA sensor (18-5010, Octet) was taken out and pre-wetted with a PBST diluent (pH 7.4) for 10 min. The antibodies to be immobilized were diluted to 5 μg/mL. […] The program was set up, the sensor plate and sample plate were put in, then the program started. The sensor was regenerated with 20 mM glycine solution (pH 1.7). The data were analyzed using Octet analysis software to derive a result graph.

In assay [4] the target is T1, cynomolgus monkey TF-His. The description is as above. As for the experimental part: as §1

B1: 22F11H5-hz1 (antibody, human IgG1, kappa, V domains shown)
VH: QVQLVQSGAEVKQPGASVKVSCKASGYTFTTYWMHWVRQAPGQGLEWMGMIDPSDSYTTYAQKFQGRVTLTVDTSTSTAYMELSSLRSEDTAVYYCARGSGPGLFAYWGQGTLVTVSS
VL: DIQETQSPSSLSASVGDRVTITCRASQDIRNYLNWYQQKPGKAPKLLIYHTSRLQSGVPSRFSGSGSGTDYTLTISSLQPEDFATYYCQQGNMPPYTFGQGTKVEIKR
notes: Humanized IgG1 kappa
Regarding B1, in assay [1], the “coagulation time V50 (s), MDA-MB-231 cells + human plasma, 2 mM Ca2+, 50 µg/mL antibody” value worked out at 1640 s and the “coagulation time V50 (s), MDA-MB-231 cells + human plasma, 5 mM Ca2+, 20 µg/mL antibody” value is 49.4 s. This molecule came in with an EC50 in assay [2] of 0.0114 µg/mL. For the same molecule, in assay [3], the affinity, expressed as Kd, was 9.8 nM; the koff was 0.00296 s⁻¹; the association rate constant (kon) was found to be 302000 M⁻¹ s⁻¹. In assay [4], this molecule had a Kd of 12.7 nM, a koff of 0.00411 s⁻¹ and an on-rate (kon) of 324000 M⁻¹ s⁻¹.

B2: 27H8H3-hz1 (antibody, human IgG1, kappa, V domains shown)
VH: QVQLVQSGAEVKKPGASVKVSCKASGYTFTTYWMHWVRQAPGQGLEWMGMIDPSDSYTSYAQKFQGRVTLTVDTSTSTAYMELSSLRSEDTAVYYCTRGSGPGLFAYWGQGTLVTVSS
VL: DIQETQSPSSLSASVGDRVTITCRASQGISNYLNWYQQKPGKAPKLLIYHTSRLHSGVPSRFSGSVSGTDFTLTISSLQPEDFATYFCQQGNTLPYTFGQGTKVEIKR
notes: Humanized IgG1 kappa
In the case of B2, in assay [1], the “coagulation time V50 (s), MDA-MB-231 cells + human plasma, 2 mM Ca2+, 50 µg/mL antibody” value amounted to 750 s and the “coagulation time V50 (s), MDA-MB-231 cells + human plasma, 5 mM Ca2+, 20 µg/mL antibody” value came out at 26.2 s. In assay [2], this molecule registered an EC50 of 0.0114 µg/mL. In assay [3], this molecule showed a Kd of 42.5 nM, a koff of 0.0116 s⁻¹ and a kon of 273000 M⁻¹ s⁻¹. In addition, in assay [4], the affinity, expressed as Kd, was 42.5 nM; the off-rate constant (koff) was 0.0125 s⁻¹; the kon worked out at 295000 M⁻¹ s⁻¹.

The values above are taken from US20250333541A1, “ANTIBODY, AND DRUG CONJUGATE AND USE THEREOF” (EVOPOINT BIOSCIENCES CO., LTD., priority 2022, published 2025).
